Measurements as given in PMC12000298 (Communications Biology, 2025).
Where two headings read alike, the source gives them in different places.

B1: Ube2G2 (untagged, from 6xHis-SUMO-Ube2G2) (enzyme)
chain: MAGTALKRLMAEYKQLTLNPPEGIVAGPMNEENFFEWEALIMGPEDTCFEFGVFPAILSFPLDYPLSPPKMRFTCEMFHPNIYPDGRVCISILHAPGDDPMGYESSAERWSPVQSVEKILLSVVSMLAEPNDESGANVDASKMWRDDREQFYKIAKQIVQKSLGL
B2: CUE-G2BR^AUP1 (AUP1 C-terminal region, aa292-410) (domain or fragment)
chain: SPDVQLATLAQRVKEVLPHVPLGVIQRDLAKTGCVDLTITNLLEGAVAFMPEDITKGTQSLPTASASKFPSSGPVTPQPTALTFAKSSWARQESLQERKQALYEYARRRFTERRAQEAD

What was measured:
Assay in all cases: SEC
[1] = molecular target: GST-Gp78c (aa309-643, RING-CUE-G2BR) (UniProt Q9UKV5 309-643)
Chain of GST-Gp78c (aa309-643, RING-CUE-G2BR) (Q9UKV5 309-643): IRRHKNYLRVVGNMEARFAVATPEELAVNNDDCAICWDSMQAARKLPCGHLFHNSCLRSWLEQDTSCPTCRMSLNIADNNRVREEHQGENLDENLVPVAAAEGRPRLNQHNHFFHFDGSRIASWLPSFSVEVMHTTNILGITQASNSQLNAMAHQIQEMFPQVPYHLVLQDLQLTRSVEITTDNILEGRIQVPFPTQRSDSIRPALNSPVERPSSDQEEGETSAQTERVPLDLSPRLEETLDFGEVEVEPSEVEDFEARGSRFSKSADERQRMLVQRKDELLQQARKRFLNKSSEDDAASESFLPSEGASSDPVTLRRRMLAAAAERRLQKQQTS

[2] = molecular target: B1
[3] = molecular target: B1; remark: listed apart in the source

Binder | binding result [3] | further results
B1 | – | binding result [1]: binds
B2 | – | binding result [2]: binds
GGSSSSWARQESLQERKQALYEYARRRFTER [SBP-His6-G2BR^AUP1] | binds | –
GGSSSADERQRMLVQRKDELLQQARKRFLNKS [SBP-His6-G2BR^Gp78] | binds | –
